Results published in patent US20070160658A1, “Delivery system for diagnostic and therapeutic agents” (The Penn State Research Foundation, priority 2005, published 2007).

Molecular target: T1, IL-13Rα2 (Homo sapiens, UniProt Q14627)
T1 sequence (Q14627 27-380): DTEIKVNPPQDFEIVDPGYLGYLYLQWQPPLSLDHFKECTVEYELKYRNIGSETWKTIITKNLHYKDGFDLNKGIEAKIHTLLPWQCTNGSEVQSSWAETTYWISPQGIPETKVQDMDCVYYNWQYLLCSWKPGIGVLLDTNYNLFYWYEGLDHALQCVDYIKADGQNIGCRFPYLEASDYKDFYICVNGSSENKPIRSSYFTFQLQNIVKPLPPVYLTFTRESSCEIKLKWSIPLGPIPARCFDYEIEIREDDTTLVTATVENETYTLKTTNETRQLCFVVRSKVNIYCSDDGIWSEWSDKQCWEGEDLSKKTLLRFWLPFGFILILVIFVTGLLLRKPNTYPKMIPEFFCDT
Assay: titered cytotoxicity neutralization assay against IL13-PE38QQR cytotoxin
Assay type: cell-based
Conditions: protein 100 ng/ml; cytotoxin IL13-PE38QQR fixed at 10 ng/ml
Experimental: Additionally, position K105 of this region of IL-13 is mutated into a variety of amino acids and the mutants' cytotoxic neutralization potential and binding affinity towards IL-13Rα2 is determined. […] In this titered cytotoxicity neutralization experiment, higher neutralization efficiency against the IL13-PE38QQR cytotoxin, for the mutant IL13.K105R is observed (Madhankumar A. B., Mintz, A., and Debinski, W. (2004) Neoplasia (New York) 6, 15-22). IL13.K105R is able to neutralize the cytotoxicity to 99% at 100 ng/ml concentration when compared with its blocking efficiency at 1000 ng/ml concentration. However, the wild type IL-13 and the mutant IL13.K106R and IL13.R109K have only 86.5%, 86.7% and 80.7% of the cytotoxicity neutralization efficiency with respect to their neutralization efficiency at 1000 ng/ml concentration. […] The high affinity mutant IL13.K105R is used as a ligand to conjugate to liposomes in order to better target the glioma associated IL-13Rα2 receptor.

Substance | cytotoxicity neutralization efficiency with respect to neutralization efficiency at 1000 ng/ml [%]
IL13.K106R: mutant of IL-13 at position 106 | 86.7
wild type IL-13: human cytokine interleukin-13, wild type | 86.5
